The target in test [1] is T1, recombinant human GITR ECD (human, UniProt Q9Y5U5 26-161).
T1 construct: also called human GITR extracellular domain
T1 sequence: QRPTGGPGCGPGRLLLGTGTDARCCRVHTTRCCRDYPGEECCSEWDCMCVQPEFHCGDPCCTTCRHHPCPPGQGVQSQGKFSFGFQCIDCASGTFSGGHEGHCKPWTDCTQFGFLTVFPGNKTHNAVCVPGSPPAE
Briefly: SPR (ProteOn XPR36), mAb captured by anti-human Fc, GITR ECD as analyte, 25 °C. How it is done:
(§1) The affinities of the GITR antibodies to recombinant human GITR ECD were measured by Surface Plasmon Resonance (SPR) using a ProteOn XPR36 protein interaction array system (BioRad).
(§2) The rates of GITR ECD association and dissociation were measured for each variant. The biosensor surface was prepared by covalently coupling Goat anti-Human IgG (Fc) to the surface of a GLC chip (BioRad) using the manufacturer instructions for amine-coupling chemistry. Approximately 8800 RU (response units) of Goat anti-Human IgG (Fc) antibody (Jackson ImmunoResearch laboratories Prod #109-005-098) were immobilized. […] Since the mixture was 1:1 about 50% of these RU immobilized are expected to be goat anti-human Fc. The binding kinetics experiments were performed at 25° C. in running buffer (PBS pH 7.4, 0.005% P20, 3 mM EDTA). […] (1:3) serial dilutions of human GITR ECD or cyno GITR ECD starting at 100 nM were prepared in running buffer. […] The reference spots (Goat anti-Human IgG (Fc)-modified surface) containing no candidate captured were used as a reference surface. Capture of mAb was followed by 3 min injection (association phase) of antigen at 40 μL/min, followed by 10 min of buffer flow (dissociation phase). The chip surface was regenerated by injection of 0.85% phosphoric acid at 100 μL/min. Data were processed on the instrument software. Double reference subtraction of the data was performed by subtracting the curves generated by buffer injection from the reference-subtracted curves for analyte injections. Kinetic analysis of the data was performed using 1:1 Langmuir binding model with group fit. The result for each mAb was reported in the format of kon or on-rate, koff or off-rate, and KD (Equilibrium dissociation constant) (Table 7).

Test [2] has as its target T2, cyno GITR ECD (cynomolgus monkey).
T2 construct: Only the extracellular domain stood in the SPR assay
T2 chain: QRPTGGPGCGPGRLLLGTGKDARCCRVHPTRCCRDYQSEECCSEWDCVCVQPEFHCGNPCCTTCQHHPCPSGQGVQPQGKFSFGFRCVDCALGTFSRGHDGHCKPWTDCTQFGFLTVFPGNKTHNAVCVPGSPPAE
Described as above. On the procedure:
as §1, §2

Test [3] deals with T3, Human GITR (cell surface) (human, UniProt Q9Y5U5 26-241).
T3 sequence: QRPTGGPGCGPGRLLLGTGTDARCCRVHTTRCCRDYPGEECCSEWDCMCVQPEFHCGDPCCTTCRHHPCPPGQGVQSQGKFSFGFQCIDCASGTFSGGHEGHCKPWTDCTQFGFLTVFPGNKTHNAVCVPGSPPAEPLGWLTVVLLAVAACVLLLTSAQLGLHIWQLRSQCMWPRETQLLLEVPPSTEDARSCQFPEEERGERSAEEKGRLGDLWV
Nature of the test: cell-based or functional assay.

Test [4] concerns the target T4, Cyno GITR (cell surface) (cynomolgus monkey).
T4 chain: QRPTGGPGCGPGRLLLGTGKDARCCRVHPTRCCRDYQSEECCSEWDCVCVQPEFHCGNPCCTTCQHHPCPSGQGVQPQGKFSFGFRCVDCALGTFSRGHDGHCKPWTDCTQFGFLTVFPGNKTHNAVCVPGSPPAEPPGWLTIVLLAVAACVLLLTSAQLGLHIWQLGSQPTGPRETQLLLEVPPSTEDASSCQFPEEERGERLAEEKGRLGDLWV
Nature of the test: cell-based or functional assay.

Test [5] concerns the target T4, Cyno GITR (cell surface). Nature of the test: MSD-CAT, cyno against human GITR, study 1. On the procedure: (§3) The MSD-CAT was developed in-house as a label-free method to determine affinity using intact cells in a high throughput format. The parental HEK293 cell line without any GITR expressed was used as a negative control.
(§4) These samples were prepared in DMEM Glutamax medium (Invitrogen, Prod #10569-044) with 0.05% Azide, 1% BSA, 3 mM EDTA. After equilibration the plates were centrifuged for 5 min at 2000 rpm and free anti-GITR mAbs are detected in the supernatant. The free anti-GITR mAbs in the mixture were detected by electrochemiluminescence (ECL) using MSD reader instrument. For detection, MSD-Streptavidin plates (MesoScale Discovery, Prod #L11SA-1) were coated with 0.1 μg/mL of biotinylated human-GITR antigen in assay buffer at 50 μL/well and equilibrated overnight (˜16 hr at 4° C.). […] After 1 hr, the plates were washed three times with wash buffer and 150 μL of MSD Read Buffer (MesoScale Discovery Cat #R92TC-1; prepared by diluting 1:3 of stock into d. H2O) were added per well. The plates were read immediately on the MSD Sector Imager 6000 Reader for luminescence levels. ECL signal detected by MSD was expressed in term of % free antibody in the mixture and the data was analyzed to determine affinity using a user defined equation (derived from the law of mass action) introduced in Prism software.

Test [6] has as its target T3, Human GITR (cell surface). Nature of the test: MSD-CAT, GITR-expressing HEK293 cells, study 1. On the procedure:
as §3, §4

Test [7] addresses T4, Cyno GITR (cell surface). Briefly: MSD-CAT, GITR-expressing HEK293 cells, study 1. On the procedure: as §3, §4

B1: TRGB159 (antibody, human IgG1, kappa, V domains shown)
VH: QVQLVQSGAEVKKPGSSVKVSCKASGGTFSSYAISWVRQAPGQGLEWMGGIIPIFGTANYAQKFQGRVTITADESTSTAYMELSSLRSEDTAVYYCARHGRNSGRLDYWGQGTLVTVSS
VL: EIVLTQSPATLSLSPGERATLSCRASQSVSSYLAWYQQKPGQAPRLLIYDASNRATGIPARFSGSGSGTDFTLTISSLEPEDFAVYYCQQRSNWPLTFGQGTKVEIKR
notes: human IgG1/kappa
Broadly, the Kd is the equilibrium constant for the complex coming apart. As usually defined, the koff is a measure of how fast the partners let go of each other. By kon is commonly meant the second-order rate constant of association. As to B1, in test [1], the Kd was determined as 3.04 nM, the off-rate (koff) is 0.00162 s⁻¹ and the kon came to 532000 M⁻¹ s⁻¹. In test [2], this molecule had a Kd of 10.6 nM, an off-rate (koff) of 0.00197 s⁻¹ and a kon of 185000 M⁻¹ s⁻¹. In test [3], the “ADCC EC50, HEK293-hGITR target cells, NK-92 FcγRIIIa 176V/V effector cells” value (from here on “ADCC EC50, HEK293-hGITR target cells”) was determined as 2.9 ng/mL and the “ADCC EC50, HT1080-hGITR target cells, NK-92 FcγRIIIa 176V/V effector cells” value is 6.7 ng/mL. In test [4], the “ADCC EC50, HEK293-cyno GITR target cells, NK-92 FcγRIIIa 176V/V effector cells” value (“ADCC EC50, HEK293-cyno GITR target cells” for short) was determined as 25.8 ng/mL.

B2: TRGB153 (antibody, human IgG1, kappa, V domains shown)
VH: QVQLVQSGAEVKKPGSSVKVSCKASGGTFSSYAISWVRQAPGQGLEWMGGIIPIFGTANYAQKFQGRVTITADESTSTAYMELSSLRSEDTAVYYCARHAWLGHLDYWGQGTLVTVSS
VL: EIVLTQSPATLSLSPGERATLSCRASQSVSSYLAWYQQKPGQAPRLLIYDASNRATGIPARFSGSGSGTDFTLTISSLEPEDFAVYYCQQRSNWPLTFGQGTKVEIKR
notes: human IgG1/kappa
In the case of B2, the “KD Fold Difference (Cy/Hu)” value in test [5] was 11.4 fold. Also, the dissociation constant Kd in test [6] was ~0.01 nM; in test [7], 0.115 nM; in test [1] it was 0.0202 nM; in test [2], 8.6 nM. Further, the koff in test [1] is 2.02e-05 s⁻¹; in test [2], 0.00257 s⁻¹. The figures for the kon in test [1] and in test [2] were 996000 M⁻¹ s⁻¹ and 299000 M⁻¹ s⁻¹, respectively. For the same molecule, the “ADCC EC50, HEK293-hGITR target cells” value in test [3] is 1.9 ng/mL. Besides, the “ADCC EC50, HEK293-cyno GITR target cells” value in test [4] is 2.5 ng/mL.

B3: TRGB23 (antibody, human IgG1, kappa, V domains shown)
VH: QVQLVQSGAEVKKPGSSVKVSCKASGGTFSSYAISWVRQAPGQGLEWMGGIIPIFGTANYAQKFQGRVTITADESTSTAYMELSSLRSEDTAVYYCARHGNWLHFNLDYWGQGTLVTVSS
VL: EIVLTQSPATLSLSPGERATLSCRASQSVSSYLAWYQQKPGQAPRLLIYDASNRATGIPARFSGSGSGTDFTLTISSLEPEDFAVYYCQQRSNWPLTFGQGTKVEIKR
Take B3: the “ADCC EC50, HEK293-hGITR target cells” value in test [3] was determined as 4.4 ng/mL. For the same molecule, in test [4], the “ADCC EC50, HEK293-cyno GITR target cells” value amounted to 10.2 ng/mL.
